# Paper PMC6544384
# T1: ZLD DBD (MBP-ZLD1117-1487) (UniProt Q9VWC6 1117-1487)
# T1 sequence: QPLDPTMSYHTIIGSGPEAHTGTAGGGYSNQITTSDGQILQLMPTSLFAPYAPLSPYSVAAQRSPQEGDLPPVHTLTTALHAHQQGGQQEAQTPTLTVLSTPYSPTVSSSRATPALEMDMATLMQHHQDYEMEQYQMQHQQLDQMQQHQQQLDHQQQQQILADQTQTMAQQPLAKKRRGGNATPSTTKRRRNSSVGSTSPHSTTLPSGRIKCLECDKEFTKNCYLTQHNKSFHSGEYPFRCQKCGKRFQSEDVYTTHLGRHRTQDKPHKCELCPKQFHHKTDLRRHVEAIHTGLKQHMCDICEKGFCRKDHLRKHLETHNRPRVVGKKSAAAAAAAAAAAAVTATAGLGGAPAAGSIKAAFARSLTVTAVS
# B1: bnk DNA (dsDNA)
# DNA 1: TCCTTTTTTACTTTCATAGCTTAGGTAGTGATCTCAGGTAGTTTCCCGGAATTAAGTTAGGCTGGGTATCGCCTATCGGGAGCGGCTACCTGAACTTTTGGCACCAGCTGTCGGGGGTGAAAACTGGACCAGGTAGTCTTTAGAAGTGCACCTATATAAG
# DNA 2: CTTATATAGGTGCACTTCTAAAGACTACCTGGTCCAGTTTTCACCCCCGACAGCTGGTGCCAAAAGTTCAGGTAGCCGCTCCCGATAGGCGATACCCAGCCTAACTTAATTCCGGGAAACTACCTGAGATCACTACCTAAGCTATGAAAGTAAAAAAGGA
# B2: scute wild-type (specific competitor) (dsDNA)
# DNA 1: GAGAGAGACTACCTGTGGCTCACT
# DNA 2: AGTGAGCCACAGGTAGTCTCTCTC
# B3: scute mutant (nonspecific competitor) (dsDNA)
# DNA 1: GAGAGAGAGTAGTTCTGGCTCACT
# DNA 2: AGTGAGCCAGAACTACTCTCTCTC
# Legend:
# ZLD full-length (rZLD) [1] = target: T2, ZLD full-length (rZLD) (UniProt Q9VWC6 1-1596); experiment: EMSA
# T2 sequence (Q9VWC6 whole entry): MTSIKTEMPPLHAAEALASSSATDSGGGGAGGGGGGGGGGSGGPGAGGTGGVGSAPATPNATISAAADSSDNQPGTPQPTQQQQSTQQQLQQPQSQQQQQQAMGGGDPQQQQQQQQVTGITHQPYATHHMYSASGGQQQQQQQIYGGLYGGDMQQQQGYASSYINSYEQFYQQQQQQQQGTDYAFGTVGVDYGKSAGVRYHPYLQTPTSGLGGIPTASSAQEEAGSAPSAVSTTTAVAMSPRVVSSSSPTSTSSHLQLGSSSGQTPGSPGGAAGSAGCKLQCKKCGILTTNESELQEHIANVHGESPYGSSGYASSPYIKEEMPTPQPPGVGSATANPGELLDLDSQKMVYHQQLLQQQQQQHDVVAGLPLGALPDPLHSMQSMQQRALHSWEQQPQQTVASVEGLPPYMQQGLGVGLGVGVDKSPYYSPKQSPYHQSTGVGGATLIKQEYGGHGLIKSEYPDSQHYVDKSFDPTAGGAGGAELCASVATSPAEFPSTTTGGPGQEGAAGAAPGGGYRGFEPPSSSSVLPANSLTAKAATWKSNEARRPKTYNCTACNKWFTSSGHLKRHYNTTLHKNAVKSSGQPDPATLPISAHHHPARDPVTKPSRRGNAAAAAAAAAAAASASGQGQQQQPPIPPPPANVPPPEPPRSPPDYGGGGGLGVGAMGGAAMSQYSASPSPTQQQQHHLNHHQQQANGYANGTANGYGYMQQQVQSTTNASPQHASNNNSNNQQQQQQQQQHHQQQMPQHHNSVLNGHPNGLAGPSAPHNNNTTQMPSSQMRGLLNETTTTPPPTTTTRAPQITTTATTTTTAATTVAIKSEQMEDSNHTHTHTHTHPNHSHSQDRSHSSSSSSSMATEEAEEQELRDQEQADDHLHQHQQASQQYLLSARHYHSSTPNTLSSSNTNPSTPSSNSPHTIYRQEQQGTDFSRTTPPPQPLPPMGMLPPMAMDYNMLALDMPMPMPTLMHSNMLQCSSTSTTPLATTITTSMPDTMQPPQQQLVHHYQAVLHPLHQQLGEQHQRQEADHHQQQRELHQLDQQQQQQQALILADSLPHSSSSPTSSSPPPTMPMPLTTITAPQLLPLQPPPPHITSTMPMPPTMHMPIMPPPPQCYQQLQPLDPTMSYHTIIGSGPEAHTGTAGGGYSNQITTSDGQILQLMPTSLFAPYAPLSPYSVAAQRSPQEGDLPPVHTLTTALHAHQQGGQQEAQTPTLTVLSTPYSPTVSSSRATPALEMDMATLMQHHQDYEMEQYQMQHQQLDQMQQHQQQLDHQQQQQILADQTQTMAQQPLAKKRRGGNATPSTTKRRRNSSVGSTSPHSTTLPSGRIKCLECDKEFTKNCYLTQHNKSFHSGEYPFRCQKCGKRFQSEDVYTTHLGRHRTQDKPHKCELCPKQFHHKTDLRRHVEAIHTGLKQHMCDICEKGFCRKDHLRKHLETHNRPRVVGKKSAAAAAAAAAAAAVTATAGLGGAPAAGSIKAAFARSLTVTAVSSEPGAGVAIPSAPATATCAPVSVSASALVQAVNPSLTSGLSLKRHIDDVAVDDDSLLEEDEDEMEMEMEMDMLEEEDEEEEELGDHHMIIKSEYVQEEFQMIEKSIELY
# [2] = target: T1, ZLD DBD (MBP-ZLD1117-1487); experiment: competition
# ZLD full-length (rZLD) [3] = target: T2, ZLD full-length (rZLD); experiment: competition
# ZLD full-length (rZLD) [4] = target: T2, ZLD full-length (rZLD); experiment: competition; remark: listed apart in the source
binder,measurement,setting,value
B1,binding result,ZLD full-length (rZLD) [1],binds
B2,binding result,[2],binds
same,binding result,ZLD full-length (rZLD) [3],binds
B3,binding result,ZLD full-length (rZLD) [4],no binding
